# B1: mouse monoclonal antibody clone 1A8 (anti-DEFA5) [modified: Fc glycosylation, mainly the G1F glycoform (intact ESI-MS)] [mouse] / peptide No. 57 of the overlapping library, DEFA5 amino acids 61-75 (ARATCYCRTGRCATR) [human] (parent complex)
# chain 1: QVQLQQSGAELVRPGASVKMSCKALGYTFFDYEMHWMKQTPVYGLEWIGAIHPGSGDTAYNQKFKGKATLTADKSSNTAYMELSSLTSEDSAVYYCTREGTVVAPFDYWGQGTTLTVSS
# chain 2: DVLMTQTPLSLPVSLGDQASISCRSSQSIVHSNGNTYLEWYLQKPGQSPKLLINKVSNRFSGVPDRFSGSGSGTDFTLKISRVEAEDLGVYYCFQGSYVPYTFGGGTKLEIK
# chain 3: ARATCYCRTGRCATR
# Variants of: B1
# Experiment: indirect ELISA; parent: 2.2; read off a plot
row,response [OD450nm],Variant
1,~1.9,chain 3 R2A
2,~1.8,chain 3 A13G
3,~1.9,chain 3 G10A
4,~1.7,chain 3 T9A
5,~1.9,chain 3 Y6A
6,~1.8,chain 3 A3G
7,~0.95,chain 3 C12A
8,~2.2,chain 3 R15A
9,~0.07,chain 3 R11A
10,~1.9,chain 3 C5A
11,~1.7,chain 3 T14A
12,~1.8,chain 3 R8A
13,~1.9,chain 3 T4A

# Variants of: B1
# Experiment: indirect ELISA; parent: 2.6; read off a plot
row,response [OD450nm],Variant
1,~1.9,chain 3 R2A
2,~1.8,chain 3 A13G
3,~1.9,chain 3 G10A
4,~1.9,chain 3 T9A
5,~1.8,chain 3 Y6A
6,~1.8,chain 3 A3G
7,~1.1,chain 3 C12A
8,~2.6,chain 3 R15A
9,~0.07,chain 3 R11A
10,~2,chain 3 C5A
11,~1.2,chain 3 C7A
12,~2,chain 3 T14A
13,~1.8,chain 3 R8A
14,~1.9,chain 3 T4A

# Reference: article PMC12809912 (2025)
